Data taken from patent US20240270813A1 (UNIVERSITY OF PITTSBURGH OF THE COMMONWEALTH SYSTEM OF …, published 2024).

Molecular target: HA-1 “H” peptide (…) presented by HLA-A*02:01 on antigen presenting cells (human)
Assay: cell-based or functional assay

Row | Binder | EC50 values for CD69 Expression
1 | TCR AH (TCR, V domains shown) V domain 1: AQSVAQPEDQVNVAEGNPLTVKCTYSVSGNPYLFWYVQYPNRGLQFLLKYITGDNLVKGSYGFEAEFNKSQTSFHLKKPSALVSDSALYFCAVRVPTSGTYKYIFGTGTRLKVLA V domain 2: DTGVSQDPRHKITKRGQNVTFRCDPISEHNRLYWYRQTLGQGPEFLTYFQNEAQLEKSRLLSDRFSAERPKGSFSTLEIQRTEQGDSAMYLCASSLVSGNEQFFGPGTRLTVLE | 3.4 ng/mL
2 | TCR AI (TCR, V domains shown) V domain 1: AQSVAQPEDQVNVAEGNPLTVKCTYSVSGNPYLFWYVQYPNRGLQFLLKYITGDNLVKGSYGFEAEFNKSQTSFHLKKPSALVSDSALYFCAVREPTSGTYKYIFGTGTRLKVLA V domain 2: DTGVSQDPRHKITKRGQNVTFRCDPISEHNRLYWYRQTLGQGPEFLTYFQNEAQLEKSRLLSDRFSAERPKGSFSTLEIQRTEQGDSAMYLCASSLVNGNEQFFGPGTRLTVLE | 9.2 ng/mL
